The record followed here is article PMC9482650, “Quantitative fragmentomics allow affinity mapping of interactomes” (Nature Communications, 2022).

Among the targets are GRIP2_2, Q9C0E4; MAST3, O60307; MAGIX, Q9H6Y5; MAGI3_5, Q5TCQ9; DLG2_1, Q15700; PARD3_1, Q8TEW0; MAGI3_3, Q5TCQ9; Inadl_7, Q8NI35; MAGI1_5, Q96QZ7.
What all share (experiment): holdup assay
What all share (design): key: below the threshold = too weak to quantify, mostly under pKd 3.1 to 4
Common to all, as to conditions: plain residues with an end cap or a label only (N-terminal biotin on a linker: ttds)

Another assay has as its target T1, USH1C_3, Q9Y6N9.
T1 sequence (Q9Y6N9 447-547, limits assumed, looked up): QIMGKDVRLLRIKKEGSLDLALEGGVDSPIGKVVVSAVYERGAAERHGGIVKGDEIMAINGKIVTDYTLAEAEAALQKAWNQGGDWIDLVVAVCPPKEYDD

The next assay addresses T2, PARD6B, Q9BYG5.
T2 sequence (Q9BYG5 152-260, limits assumed, looked up): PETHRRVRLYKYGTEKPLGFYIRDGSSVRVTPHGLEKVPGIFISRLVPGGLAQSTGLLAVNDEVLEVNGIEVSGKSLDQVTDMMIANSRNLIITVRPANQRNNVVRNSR

A further assay addresses T3, GRIP1_1, Q9Y3R0.
T3 sequence (Q9Y3R0 48-146, limits assumed, looked up): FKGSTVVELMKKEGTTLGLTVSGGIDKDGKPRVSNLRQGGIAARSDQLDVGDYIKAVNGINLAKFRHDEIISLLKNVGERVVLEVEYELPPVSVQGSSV

The target in a further assay is T4, MPDZ_2, O75970.
T4 sequence (O75970 252-347, limits assumed, looked up): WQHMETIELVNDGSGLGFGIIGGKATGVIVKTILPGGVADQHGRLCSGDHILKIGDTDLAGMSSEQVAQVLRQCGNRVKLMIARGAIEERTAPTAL

A further assay addresses T5, PDZD2_6, O15018.
T5 sequence (O15018 2745-2839, limits assumed, looked up): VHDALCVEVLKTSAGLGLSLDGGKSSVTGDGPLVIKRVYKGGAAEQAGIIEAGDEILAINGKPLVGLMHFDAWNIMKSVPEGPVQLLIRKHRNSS

In a further assay the target is T6, PREX2_2, Q70Z35.
T6 sequence (Q70Z35 672-764, limits assumed, looked up): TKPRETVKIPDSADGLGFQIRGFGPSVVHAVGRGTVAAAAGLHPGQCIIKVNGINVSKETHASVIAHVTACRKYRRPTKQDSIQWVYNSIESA

Another assay concerns the target T7, SHROOM4, Q9ULL8.
T7 sequence (Q9ULL8 5-102, limits assumed, looked up): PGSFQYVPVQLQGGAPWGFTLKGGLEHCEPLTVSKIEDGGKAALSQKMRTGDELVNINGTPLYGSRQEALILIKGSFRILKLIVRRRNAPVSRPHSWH

Another assay deals with T8, PTPN4, P29074.
T8 sequence (P29074 512-599, limits assumed, looked up): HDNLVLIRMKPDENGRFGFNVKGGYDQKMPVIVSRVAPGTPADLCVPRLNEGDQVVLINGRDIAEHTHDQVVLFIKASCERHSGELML

For the next assay, the target named is T9, PDZRN3_2, Q9UPQ7.
T9 sequence (Q9UPQ7 414-513, limits assumed, looked up): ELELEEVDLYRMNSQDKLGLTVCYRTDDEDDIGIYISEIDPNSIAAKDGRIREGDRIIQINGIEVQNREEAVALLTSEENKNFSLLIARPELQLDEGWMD

The target of another assay is T10, MLLT4, P55196.
T10 sequence (P55196 1002-1103, limits assumed, looked up): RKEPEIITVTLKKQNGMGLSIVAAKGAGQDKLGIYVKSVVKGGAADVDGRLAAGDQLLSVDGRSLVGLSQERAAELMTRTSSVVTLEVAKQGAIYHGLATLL

The target of another assay is T11, MAGI2_1, Q86UL8.
T11 sequence (Q86UL8 12-111, limits assumed, looked up): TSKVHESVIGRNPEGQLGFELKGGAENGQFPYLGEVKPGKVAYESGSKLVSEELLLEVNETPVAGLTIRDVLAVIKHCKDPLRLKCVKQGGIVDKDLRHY

The target in another assay is T12, PDZD11, Q5EBL8.
T12 sequence (Q5EBL8 42-139, limits assumed, looked up): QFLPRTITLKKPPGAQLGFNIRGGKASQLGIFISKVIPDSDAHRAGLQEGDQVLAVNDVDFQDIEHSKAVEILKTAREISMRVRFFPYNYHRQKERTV

A further assay addresses T13, SHROOM2, Q13796.
T13 sequence (Q13796 21-118, limits assumed, looked up): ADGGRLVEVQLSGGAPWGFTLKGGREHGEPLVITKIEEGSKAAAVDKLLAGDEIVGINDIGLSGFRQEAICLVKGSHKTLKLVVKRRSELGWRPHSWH

A further assay addresses T14, TJP3_1, O95049.
T14 sequence (O95049 6-103, limits assumed, looked up): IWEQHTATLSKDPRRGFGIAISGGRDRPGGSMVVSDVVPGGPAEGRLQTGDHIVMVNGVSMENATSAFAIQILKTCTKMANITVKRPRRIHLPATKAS

Sequence of MAGIX, Q9H6Y5 (Q9H6Y5 118-211): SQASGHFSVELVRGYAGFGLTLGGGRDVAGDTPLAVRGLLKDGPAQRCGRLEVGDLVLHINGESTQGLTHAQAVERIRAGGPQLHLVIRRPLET
Sequence of Inadl_7, Q8NI35 (Q8NI35 1219-1332): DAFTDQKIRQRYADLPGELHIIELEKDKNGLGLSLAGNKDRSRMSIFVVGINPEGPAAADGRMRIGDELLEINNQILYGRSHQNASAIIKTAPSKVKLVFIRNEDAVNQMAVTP
Sequence of MAGI3_5, Q5TCQ9 (Q5TCQ9 847-941): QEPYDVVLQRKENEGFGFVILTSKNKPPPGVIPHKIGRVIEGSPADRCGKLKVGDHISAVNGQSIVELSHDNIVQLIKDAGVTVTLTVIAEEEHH
Sequence of MAGI3_3, Q5TCQ9 (Q5TCQ9 572-655): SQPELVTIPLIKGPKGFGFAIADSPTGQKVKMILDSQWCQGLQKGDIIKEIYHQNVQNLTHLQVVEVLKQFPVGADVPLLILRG
Sequence of GRIP2_2, Q9C0E4 (Q9C0E4 137-245): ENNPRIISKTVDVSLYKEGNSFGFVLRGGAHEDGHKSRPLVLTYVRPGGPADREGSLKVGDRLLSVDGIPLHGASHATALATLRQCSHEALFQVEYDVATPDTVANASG
Sequence of MAGI1_5, Q96QZ7 (Q96QZ7 986-1098): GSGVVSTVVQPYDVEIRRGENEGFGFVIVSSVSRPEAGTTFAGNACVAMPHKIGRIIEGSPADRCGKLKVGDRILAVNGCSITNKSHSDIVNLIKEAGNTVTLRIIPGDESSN
Sequence of PARD3_1, Q8TEW0 (Q8TEW0 264-372): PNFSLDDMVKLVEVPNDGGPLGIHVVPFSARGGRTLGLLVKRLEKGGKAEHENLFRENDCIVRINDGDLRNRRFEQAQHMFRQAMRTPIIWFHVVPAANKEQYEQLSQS
Sequence of MAST3, O60307 (O60307 945-1048): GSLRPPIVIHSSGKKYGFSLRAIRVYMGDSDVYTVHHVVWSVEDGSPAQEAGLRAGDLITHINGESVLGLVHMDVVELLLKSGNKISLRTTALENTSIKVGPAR

B1: MAP2K2, P36507 (peptide)
chain: QPGTPTRTAV
As usually defined, the pKd is the negative decadic logarithm of the Kd, by convention in mol/L. Take B1: the pKd result in the assay with USH1C_3, Q9Y6N9 is given as “below the threshold”; in the assay with PARD6B, Q9BYG5, “below the threshold”; in the assay with GRIP2_2, Q9C0E4, “below the threshold”; with MAST3, O60307 it was “below the threshold”; with GRIP1_1, Q9Y3R0, “below the threshold”; with MAGIX, Q9H6Y5, “below the threshold”. The pKd result is given as “below the threshold” in the assay with MPDZ_2, O75970; “below the threshold” with MAGI3_5, Q5TCQ9; “below the threshold” with DLG2_1, Q15700; “below the threshold” with PDZD2_6, O15018; “below the threshold” with PREX2_2, Q70Z35; “below the threshold” in the assay with SHROOM4, Q9ULL8. The pKd result with PARD3_1, Q8TEW0 is reported as “below the threshold”; in the assay with MAGI3_3, Q5TCQ9 it was “below the threshold”; with PTPN4, P29074 it was “below the threshold”; with PDZRN3_2, Q9UPQ7, “below the threshold”; with Inadl_7, Q8NI35, “below the threshold”; with MLLT4, P55196 it was “below the threshold”. Further, the pKd entry is recorded as “below the threshold” with MAGI2_1, Q86UL8; “below the threshold” with PDZD11, Q5EBL8; “below the threshold” in the assay with SHROOM2, Q13796; “below the threshold” with TJP3_1, O95049; “below the threshold” in the assay with MAGI1_5, Q96QZ7.

B2: SLCO1C1, Q9NYB5 (peptide)
chain: NYWPGKETQL
For the molecule B2, the pKd result with USH1C_3, Q9Y6N9 is “below the threshold”; with PARD6B, Q9BYG5 it was “below the threshold”; with GRIP2_2, Q9C0E4, “below the threshold”; in the assay with MAST3, O60307 it was “below the threshold”; with GRIP1_1, Q9Y3R0, “below the threshold”; with MAGIX, Q9H6Y5 it was 5.35. Besides, the pKd entry with MPDZ_2, O75970 is recorded as “below the threshold”; with MAGI3_5, Q5TCQ9, “below the threshold”; with DLG2_1, Q15700, “below the threshold”; with PDZD2_6, O15018 it was “below the threshold”; in the assay with PREX2_2, Q70Z35, “below the threshold”; with SHROOM4, Q9ULL8, “below the threshold”. In addition, the pKd entry is “below the threshold” with PARD3_1, Q8TEW0; “below the threshold” with MAGI3_3, Q5TCQ9; 4.91 with PTPN4, P29074; “below the threshold” with PDZRN3_2, Q9UPQ7; “below the threshold” with Inadl_7, Q8NI35; “below the threshold” in the assay with MLLT4, P55196. In addition, the pKd entry with MAGI2_1, Q86UL8 was “below the threshold”; in the assay with PDZD11, Q5EBL8 it was “below the threshold”; with SHROOM2, Q13796, 4.98; with TJP3_1, O95049, “below the threshold”; in the assay with MAGI1_5, Q96QZ7 it was 4.47.

B3: PBK, Q96KB5 (peptide)
chain: HIVEALETDV
In the case of B3, the pKd result is recorded as “below the threshold” with USH1C_3, Q9Y6N9; “below the threshold” in the assay with PARD6B, Q9BYG5; “below the threshold” with GRIP2_2, Q9C0E4; “below the threshold” with MAST3, O60307; “below the threshold” with GRIP1_1, Q9Y3R0; “below the threshold” in the assay with MAGIX, Q9H6Y5. In addition, the pKd result with MPDZ_2, O75970 was “below the threshold”; with MAGI3_5, Q5TCQ9, “below the threshold”; with DLG2_1, Q15700, 4.74; in the assay with PDZD2_6, O15018, “below the threshold”; in the assay with PREX2_2, Q70Z35, “below the threshold”; in the assay with SHROOM4, Q9ULL8, “below the threshold”. For the same molecule, the pKd result in the assay with PARD3_1, Q8TEW0 is “below the threshold”; in the assay with MAGI3_3, Q5TCQ9 it was 4.33; with PTPN4, P29074, “below the threshold”; in the assay with PDZRN3_2, Q9UPQ7, “below the threshold”; in the assay with Inadl_7, Q8NI35 it was 4.4; with MLLT4, P55196 it was “below the threshold”. Further, the pKd result with MAGI2_1, Q86UL8 is “below the threshold”; in the assay with PDZD11, Q5EBL8, “below the threshold”; with SHROOM2, Q13796 it was “below the threshold”; with TJP3_1, O95049, “below the threshold”; in the assay with MAGI1_5, Q96QZ7, “below the threshold”.

B4: HTLV1-TAX1, P03409 (peptide)
chain: SEKHFRETEV
Regarding B4, the pKd entry was “below the threshold” with USH1C_3, Q9Y6N9; “below the threshold” with PARD6B, Q9BYG5; “below the threshold” in the assay with GRIP2_2, Q9C0E4; “below the threshold” with MAST3, O60307; “below the threshold” with GRIP1_1, Q9Y3R0; “below the threshold” in the assay with MAGIX, Q9H6Y5. The pKd result in the assay with MPDZ_2, O75970 was “below the threshold”; in the assay with MAGI3_5, Q5TCQ9, 4.86; with DLG2_1, Q15700, 5.16; in the assay with PDZD2_6, O15018, “below the threshold”; with PREX2_2, Q70Z35 it was “below the threshold”; with SHROOM4, Q9ULL8, “below the threshold”. For the same molecule, the pKd result was “below the threshold” with PARD3_1, Q8TEW0; 4.36 with MAGI3_3, Q5TCQ9; 4.77 with PTPN4, P29074; “below the threshold” with PDZRN3_2, Q9UPQ7; “below the threshold” with Inadl_7, Q8NI35; 4.08 with MLLT4, P55196. Also, the pKd entry in the assay with MAGI2_1, Q86UL8 was “below the threshold”; in the assay with PDZD11, Q5EBL8 it was “below the threshold”; with SHROOM2, Q13796 it was “below the threshold”; with TJP3_1, O95049, “below the threshold”; with MAGI1_5, Q96QZ7 it was 5.22.
